Source: patent publication US20200095340A1
Residue numbers refer to the chain shown, from its start.

B1: anti-DLL3 trispecific protein 2D06 (protein, part only; not given: anti-CD3 and anti-albumin domains, part only)
chain, part: EVQLVESGGGLVQPGGSLTLSCVASGSTSSINAMGWYRRAPGKQRELVAGISSDGSKVYSDSVKGRFTISRDNAKNSVYLQMNSLRAEDTAVYYCYYFRTVSGSSSRYWGQGTLVTVSSGGGGSGGGSGGGGSGGGSHHHHHH
B2: anti-DLL3 trispecific protein 2C06 (protein, part only; not given: CD3 binder and albumin binder, part only)
chain, part: B1 chain, part with S29N, S60K, F98Y, S106M
B3: anti-DLL3 trispecific protein 1D06 (protein, part only; not given: anti-CD3 fragment and anti-albumin sdAb, part only)
chain, part: B1 chain, part with G55N, S60A, S102H, S106M
B4: anti-DLL3 trispecific protein 1C07 (protein, part only; not given: anti-CD3 fragment and anti-albumin sdAb, part only)
chain, part: B1 chain, part with G35A, S60A, S106M
B5: anti-DLL3 trispecific protein 2D010 (protein, part only; not given: CD3 binder and albumin binder, part only)
chain, part: B1 chain, part with S60A, V101K, S106M
B6: anti-DLL3 trispecific protein 1B010 (protein, part only; not given: CD3 fragment and albumin sdAb, part only)
chain, part: B1 chain, part with S30R, S60A, V101K, S106M
B7: anti-DLL3 trispecific protein 2B05 (protein, part only; not given: anti-CD3 fragment and anti-albumin domain, part only)
chain, part: B1 chain, part with S27T, S56T, S60A, R99H, S106M
B8: anti-DLL3 trispecific protein 2C04 (protein, part only; not given: anti-CD3 fragment and anti-albumin sdAb, part only)
chain, part: B1 chain, part with I31R, V58L, S60A, S102L, S106M
B9: anti-DLL3 trispecific protein 1A01 (protein, part only; not given: anti-CD3 and anti-albumin domains, part only)
chain, part: B1 chain, part with S27F, K57F, S60A, T100H, S106M
B10: anti-DLL3 trispecific protein 2B012 (protein, part only; not given: anti-CD3 and anti-albumin domains, part only)
chain, part: B1 chain, part with S27T, S60N, S102R, S106M
B11: anti-DLL3 trispecific protein 1G01 (protein, part only; not given: CD3 binder and albumin binder, part only)
chain, part: B1 chain, part with G35A, S60A, D61E, S104A, S106M
B12: anti-DLL3 trispecific protein 2D03 (protein, part only; not given: anti-CD3 and anti-albumin domains, part only)
chain, part: B1 chain, part with S27K, S60A, S104V, S106M
B13: anti-DLL3 trispecific protein 1E02 (protein, part only; not given: anti-CD3 fragment and anti-albumin sdAb, part only)
chain, part: B1 chain, part with S27Q, K57Q, S60A, V101K, S106M
B14: anti-DLL3 trispecific protein 1E07 (protein, part only; not given: anti-CD3 fragment and anti-albumin sdAb, part only)
chain, part: B1 chain, part with G35A, S60N, S102R, S106Q
B15: anti-DLL3 trispecific protein 1G011 (protein, part only; not given: CD3 binder and albumin binder, part only)
chain, part: B1 chain, part with G35A, S60A, R99K, S106M
B16: anti-DLL3 trispecific protein 4C02 (protein, part only; not given: CD3 fragment and albumin sdAb, part only)
chain, part: EVQLVESGGGLVQPGGSLTLSCAASGSKVSFLSMAWYRQAPGKKRELVAGISADGSTTYIDSVKGRFTISRDNAKNSVYLQMNSLRAEDTAVYYCYAYRWTTRFTYWGQGTLVTVSSGGGGSGGGSGGGGSGGGSHHHHHH
B17: anti-DLL3 trispecific protein 3B05 (protein, part only; not given: anti-CD3 and anti-albumin domains, part only)
chain, part: B16 chain, part with A23V, K28S, S30K, F104R
B18: anti-DLL3 trispecific protein 4B02 (protein, part only; not given: CD3 binder and albumin binder, part only)
chain, part: B16 chain, part with K28R
B19: anti-DLL3 trispecific protein 3F011 (protein, part only; not given: anti-CD3 and anti-albumin domains, part only)
chain, part: B16 chain, part with K28S, A53T, T58D, T101R, F104Y
B20: anti-DLL3 trispecific protein 3G09 (protein, part only; not given: CD3 fragment and albumin sdAb, part only)
chain, part: B16 chain, part with K28S, F31V, T58D, D61G, F104T
B21: anti-DLL3 trispecific protein 3B07 (protein, part only; not given: anti-CD3 fragment and anti-albumin sdAb, part only)
chain, part: B16 chain, part with K28R, F104Y
B22: anti-DLL3 trispecific protein 3A011 (protein, part only; not given: CD3 binder and albumin binder, part only)
chain, part: B16 chain, part with K28S, M34L, A53T, T58D, T101R, F104Y
B23: anti-DLL3 trispecific protein 4C06 (protein, part only; not given: CD3 fragment and albumin sdAb, part only)
chain, part: B16 chain, part with G26N, K28S, F31K, T58A, T101S, F104Y
B24: anti-DLL3 trispecific protein 4G011 (protein, part only; not given: anti-CD3 fragment and anti-albumin sdAb, part only)
chain, part: B16 chain, part with K28S, S30R, T58D, D61G, T101S, F104Y
B25: anti-DLL3 trispecific protein 4E08 (protein, part only; not given: anti-CD3 fragment and anti-albumin sdAb, part only)
chain, part: B16 chain, part with K28S, S30K, A53T, T58D, R99K, F104Y
B26: anti-DLL3 trispecific protein 4C010 (protein, part only; not given: CD3 binder and albumin binder, part only)
chain, part: B16 chain, part with L32M, T58D, F104L
B27: anti-DLL3 trispecific protein 4D06 (protein, part only; not given: anti-CD3 fragment and anti-albumin sdAb, part only)
chain, part: B16 chain, part with K28S, S30K, A53P, T58D, F104Y, T105R

target: biotinylated human DLL3 protein expressed as a human IgG1 fusion protein (human) (UniProt Q9NYJ7); assay: Octet BLI; biotinylated huDLL3-IgG1 fusion on streptavidin tips; single 50 nM; conditioned medium
Sequence (Q9NYJ7 other isoform, or with tags, fused parts or gaps): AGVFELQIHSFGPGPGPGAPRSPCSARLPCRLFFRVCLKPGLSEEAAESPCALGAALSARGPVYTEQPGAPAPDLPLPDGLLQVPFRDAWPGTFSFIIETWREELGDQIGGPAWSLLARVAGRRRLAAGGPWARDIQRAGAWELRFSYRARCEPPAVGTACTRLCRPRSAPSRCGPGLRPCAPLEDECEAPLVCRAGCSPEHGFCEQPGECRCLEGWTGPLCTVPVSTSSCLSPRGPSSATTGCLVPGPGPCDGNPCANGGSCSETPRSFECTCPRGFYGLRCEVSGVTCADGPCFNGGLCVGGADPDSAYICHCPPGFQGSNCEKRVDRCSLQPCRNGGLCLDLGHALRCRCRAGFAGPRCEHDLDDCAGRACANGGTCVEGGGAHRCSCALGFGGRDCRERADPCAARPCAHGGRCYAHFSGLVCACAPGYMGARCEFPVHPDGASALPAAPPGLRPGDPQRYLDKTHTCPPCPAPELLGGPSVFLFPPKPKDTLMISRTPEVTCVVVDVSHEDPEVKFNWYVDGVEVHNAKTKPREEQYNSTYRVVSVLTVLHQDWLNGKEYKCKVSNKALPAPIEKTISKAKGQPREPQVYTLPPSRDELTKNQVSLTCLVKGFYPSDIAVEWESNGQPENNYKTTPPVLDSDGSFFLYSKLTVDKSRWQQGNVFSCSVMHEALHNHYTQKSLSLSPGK

Kd [nM]	Binder
6.6	B1
6.7	B2
6.8	B3
7.1	B4
7.3	B5
6.8	B6
7.4	B7
6.8	B8
7	B9
7.3	B10
6.6	B11
6.8	B12
7	B13
7.1	B14
6.8	B15
6.8	B16
7.2	B17
7.1	B18
7.1	B19
7.3	B20
7.3	B21
6.8	B22
6.8	B23
7.5	B24
7.2	B25
7	B26
7.5	B27
